According to patent US20260193326A1 (published 2026):
Positions count from the first letter of the chain named.

B1: A4-055 (VHH)
VHH: VQLQESGGGLVQPGGSLRLSCAASGSIFSINTMGWYRQAPGKQRELVAAVTRGGSTNYADSVKGRFTISRDNAKNTVYLQMNSLRPEDTAVYYCHVDEVRQSSWTTSNLWGQGTQVTVSS
B2: A4-085 (VHH)
VHH: B1 VHH with I27R, I30L, L46F, S55N, A59G, S61F, V99L, Q101E
B3: A4-049 (VHH)
VHH: B1 VHH with I27M, S55N, D60G
B4: A4-081 (VHH)
VHH: B1 VHH with I27R, I30L, A49T, V99L, Q101E, S103G
B5: A4-078 (VHH)
VHH: B1 VHH with A22L, S26T, I27M, I30L, A49T, S61F, Q101D
B6: A4-066 (VHH)
VHH: B1 VHH with P13T, S26R, I27A, I30L, A49T, D60G, Q101E
B7: A4-063 (VHH)
VHH: B1 VHH with S26R, I27R, S29T, Q38R, A49T, V50I, D60G, A73P, V96I
B8: A4-080 (VHH)
VHH: B1 VHH with I27R, I30L, A49T, S61F, V99L, Q101E, S103G
B9: A4-069 (VHH)
VHH: B1 VHH with S29T, T32S, Q43W, A49T, S55N, D60N, S83T, V96L, Q101D
B10: A4-045 (VHH)
VHH: B1 VHH with I27S, S55V
B11: A4-052 (VHH)
VHH: B1 VHH with S29I
B12: A4-053 (VHH)
VHH: B1 VHH with S29I, Q38R
B13: A4-050 (VHH)
VHH: B1 VHH with I27S, S29V
B14: A4-060 (VHH)
VHH: B1 VHH with I27T, I30L, L46I, A49T, D60E, S103T
B15: A4-075 (VHH)
VHH: B1 VHH with P13S, I27M, I30L, A49T, V50I, S55G, V99L
B16: A4-084 (VHH)
VHH: B1 VHH with R18K, I27R, I30L, G41R, L46F, S55N, A59G, S61F, V99L, Q101E
B17: A4-057 (VHH)
VHH: B1 VHH with L46K
B18: A4-061 (VHH)
VHH: B1 VHH with I27R, I30L, A49T, D60N, S103T
B19: A4-062 (VHH)
VHH: B1 VHH with P13A, I27S, T32A, A49T, S55T, A73P, V96L, Q101E
B20: A4-079 (VHH)
VHH: B1 VHH with S26T, I27R, A49N, R52P, G53A, V99L, Q101D
B21: A4-073 (VHH)
VHH: B1 VHH with I27N, L46M, A49T, A59G, S61F, V99I, L109I
B22: A4-059 (VHH)
VHH: B1 VHH with L10A, I27H, I30L, Q38R, A49T, V77I, S103T
B23: A4-058 (VHH)
VHH: B1 VHH with G41A, L46I, A49T, G53D, D60E, V96L, S103T
B24: A4-065 (VHH)
VHH: B1 VHH with P13S, S26R, I27N, I30L, M33V, A49T, D60G, Q101E
B25: A4-082 (VHH)
VHH: B1 VHH with I27R, I30L, A49T, N57K, S61F, V99L, Q101E, S103G
B26: A4-070 (VHH)
VHH: B1 VHH with T32S, Q43W, A49T, D60N, S83T, V96L, Q101D

Columns and labels:
AAV8 [1] = target: T1, AAV8 (adeno-associated virus 8); assay: SPR, AAV amine-coupled to CM5 chip;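 further: nanobodies flowed as analyte at seven concentrations spanning 1–100 nM over immobilized AAV (500–800 RU), kinetic constants derived by fitting the binding curves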
T1 construct: also called adeno-associated virus serotype 8
Description: (§1) AAV was amine-coupled to a CM5 sensor chip at a density of 500-800 response units (RU). Nanobodies were injected at seven concentrations (1-100 nM) with a flow rate of 45 μL/min, and chip regeneration was performed using glycine-HCl (pH 1.5). Binding curves at different nanobody concentrations were used to calculate kinetic parameters (Kₐ, Kd, KD) (Table 2 and FIG. 2).

AAV9 [2] = target: T2, AAV9 (adeno-associated virus 9); assay: SPR, AAV amine-coupled to CM5 chip;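 further: nanobodies flowed as analyte at seven concentrations spanning 1–100 nM over immobilized AAV (500–800 RU), kinetic constants derived by fitting the binding curves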
T2 construct: also called adeno-associated virus serotype 9
Description: as §1

AAV5 [3] = target: T3, AAV5 (adeno-associated virus 5); assay: SPR, AAV amine-coupled to CM5 chip;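 further: nanobodies flowed as analyte at seven concentrations spanning 1–100 nM over immobilized AAV (500–800 RU), kinetic constants derived by fitting the binding curves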
T3 construct: also called adeno-associated virus serotype 5
Description: as §1

AAV8 [4] = target: T4, AAV8; assay: SPR, AAV on CM5 chip;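 further: surface plasmon resonance with AAV amine-coupled to the chip as ligand, nanobodies injected as analyte over a concentration series, rate constants and affinity fitted from binding curves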
T4 construct: also called adeno-associated virus serotype 8
Description: as §1

AAV9 [5] = target: T5, AAV9; assay: SPR, AAV on CM5 chip;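 further: surface plasmon resonance with AAV amine-coupled to the chip as ligand, nanobodies injected as analyte over a concentration series, rate constants and affinity fitted from binding curves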
T5 construct: also called adeno-associated virus serotype 9
Description: as §1

AAV5 [6] = target: T6, AAV5; assay: SPR, AAV on CM5 chip;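 further: surface plasmon resonance with AAV amine-coupled to the chip as ligand, nanobodies injected as analyte over a concentration series, rate constants and affinity fitted from binding curves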
T6 construct: also called adeno-associated virus serotype 5
Description: as §1

Binder	Kd (AAV8 [1]) [nM]	koff (AAV8 [1]) [s⁻¹]	kon (AAV8 [1]) [M⁻¹ s⁻¹]	Kd (AAV9 [2]) [nM]	koff (AAV9 [2]) [s⁻¹]	kon (AAV9 [2]) [M⁻¹ s⁻¹]	Kd (AAV5 [3]) [nM]	koff (AAV5 [3]) [s⁻¹]	kon (AAV5 [3]) [M⁻¹ s⁻¹]	Kd (AAV8 [4]) [nM]	koff (AAV8 [4]) [s⁻¹]	kon (AAV8 [4]) [M⁻¹ s⁻¹]	Kd (AAV9 [5]) [nM]	koff (AAV9 [5]) [s⁻¹]	kon (AAV9 [5]) [M⁻¹ s⁻¹]	Kd (AAV5 [6]) [nM]	koff (AAV5 [6]) [s⁻¹]	kon (AAV5 [6]) [M⁻¹ s⁻¹]
B1	2.23	0.00044	198000	4.06	0.00032	78800	1.11	0.00022	198000	–	–	–	–	–	–	–	–	–
B2	108	0.00041	3790	223	0.0005	2240	192	0.00191	9940	–	–	–	–	–	–	–	–	–
B3	–	–	–	–	–	–	–	–	–	20.8	0.00056	26900	93.1	0.00194	20800	9.61	0.00158	164000
B4	6.05	0.00105	174000	13.7	0.00131	95900	12.5	0.00146	117000	–	–	–	–	–	–	–	–	–
B5	61.6	0.006	97500	215	0.00618	28800	52.7	0.00932	177000	–	–	–	–	–	–	–	–	–
B6	21.6	0.002	92400	32.8	0.00101	30700	20.7	0.00191	92100	–	–	–	–	–	–	–	–	–
B7	439	0.0065	14800	81.6	0.00401	49100	128	0.00834	65000	–	–	–	–	–	–	–	–	–
B8	191	0.00138	7220	5.08	0.00074	146000	20.4	0.00194	95200	–	–	–	–	–	–	–	–	–
B9	11.6	0.00142	122000	9.34	0.00098	105000	3.58	0.0002	55800	–	–	–	–	–	–	–	–	–
B10	–	–	–	–	–	–	–	–	–	1.07	1e-05	9390	37.6	0.00027	7190	41.3	0.00037	8950
B11	47.6	0.00151	–	7.38	0.00077	104000	388	0.00056	1440	–	–	–	–	–	–	–	–	–
B12	15.7	0.00146	93200	2.6	0.00048	185000	7.52	0.00121	161000	–	–	–	–	–	–	–	–	–
B13	–	–	–	–	–	–	–	–	–	2.44	0.00043	176000	2.52	0.00049	194000	7	7e-05	10000
B14	6.63	0.00055	82900	69.2	0.00176	25400	2.45	0.00045	184000	–	–	–	–	–	–	–	–	–
B15	9.57	0.00067	70000	9.74	0.00099	102000	28.9	0.00086	29800	–	–	–	–	–	–	–	–	–
B16	12.8	0.00177	138000	2.28	0.0003	132000	0.364	6e-05	165000	–	–	–	–	–	–	–	–	–
B17	103	0.00031	3020	53.3	0.00049	9190	64.4	0.00027	4200	–	–	–	–	–	–	–	–	–
B18	530	0.00057	–	273	0.0013	4770	86.8	0.00055	6330	–	–	–	–	–	–	–	–	–
B19	1.39	0.00019	137000	1.83	6e-05	32800	0.0635	1e-05	157000	–	–	–	–	–	–	–	–	–
B20	1620	0.0019	1180	382	0.00051	1340	211	0.00083	3930	–	–	–	–	–	–	–	–	–
B21	1140	0.00619	5420	1880	0.00292	1560	1140	0.00862	7530	–	–	–	–	–	–	–	–	–
B22	29	0.00094	32500	0.514	6e-05	117000	16.6	0.00091	54900	–	–	–	–	–	–	–	–	–
B23	33.4	0.00173	51800	6.11	0.0012	196000	24.5	0.00129	52600	–	–	–	–	–	–	–	–	–
B24	184	0.00095	5180	8.44	0.00139	165000	25	0.00155	61900	–	–	–	–	–	–	–	–	–
B25	46.7	0.00017	3640	122	0.0004	3290	92.9	0.0005	5380	–	–	–	–	–	–	–	–	–
B26	20.9	0.00019	9090	35.5	0.00012	3380	86.8	0.00064	7370	–	–	–	–	–	–	–	–	–
